Results reported in IntAct's records for PubMed 16438971.

B1: Calcium-dependent protein kinase 11 (Arabidopsis thaliana (Mouse-ear cress)), Q39016 (parent)
chain: METKPNPRRPSNTVLPYQTPRLRDHYLLGKKLGQGQFGTTYLCTEKSTSANYACKSIPKRKLVCREDYEDVWREIQIMHHLSEHPNVVRIKGTYEDSVFVHIVMEVCEGGELFDRIVSKGHFSEREAVKLIKTILGVVEACHSLGVMHRDLKPENFLFDSPKDDAKLKATDFGLSVFYKPGQYLYDVVGSPYYVAPEVLKKCYGPEIDVWSAGVILYILLSGVPPFWAETESGIFRQILQGKLDFKSDPWPTISEAAKDLIYKMLERSPKKRISAHEALCHPWIVDEQAAPDKPLDPAVLSRLKQFSQMNKIKKMALRVIAERLSEEEIGGLKELFKMIDTDNSGTITFEELKAGLKRVGSELMESEIKSLMDAADIDNSGTIDYGEFLAATLHMNKMEREENLVAAFSYFDKDGSGYITIDELQSACTEFGLCDTPLDDMIKEIDLDNDGKIDFSEFTAMMRKGDGVGRSRTMMKNLNFNIADAFGVDGEKSDD
partner: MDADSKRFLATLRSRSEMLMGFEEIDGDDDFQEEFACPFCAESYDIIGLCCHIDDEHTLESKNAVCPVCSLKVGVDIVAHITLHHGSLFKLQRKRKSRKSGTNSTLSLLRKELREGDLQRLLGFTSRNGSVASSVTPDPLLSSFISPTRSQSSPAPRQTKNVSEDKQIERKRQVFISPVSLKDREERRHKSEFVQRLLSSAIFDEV
B2: Protein …ON-INDUCED 19 (Arabidopsis thaliana (Mouse-ear cress)), Q39083 (parent)
chain: B1 partner
partner: B1 chain

Variants of: B1
Settings: with di191_arath DI19-1, Q39083

Variant	effect of a mutation on the interaction
METKPNPRRPSNTVLPYQTPRLRDHYLLGKKLGQGQFGTTYLCTEKSTSANYACKSIPKRKLVCREDYEDVWREIQIMHHLSEHPNVVRIKGTYEDSVFVHIVMEVCEGGELFDRIVSKGHFSEREAVKLIKTILGVVEACHSLGVMHRALKPENFLFDSPKDDAKLKATDFGLSVFYKPGQYLYDVVGSPYYVAPEVLKKCYGPEIDVWSAGVILYILLSGVPPFWAETESGIFRQILQGKLDFKSDPWPTISEAAKDLIYKMLERSPKKRISAHEALCHPWIVDEQAAPDKPLDPAVLSRLKQASQMNKIKKMALRVIAERLSEEEIGGLKELFKMIDTDNSGTITFEELKAGLKRVGSELMESEIKSLMDAADIDNSGTIDYGEFLAATLHMNKMEREENLVAAFSYFDKDGSGYITIDELQSACTEFGLCDTPLDDMIKEIDLDNDGKIDFSEFTAMMRKGDGVGRSRTMMKNLNFNIADAFGVDGEKSDD [D150A;F306A]	increasing interaction
METKPNPRRPSNTVLPYQTPRLRDHYLLGKKLGQGQFGTTYLCTEKSTSANYACKSIPKRKLVCREDYEDVWREIQIMHHLSEHPNVVRIKGTYEDSVFVHIVMEVCEGGELFDRIVSKGHFSEREAVKLIKTILGVVEACHSLGVMHRDLKPENFLFDSPKDDAKLKATAFGLSVFYKPGQYLYDVVGSPYYVAPEVLKKCYGPEIDVWSAGVILYILLSGVPPFWAETESGIFRQILQGKLDFKSDPWPTISEAAKDLIYKMLERSPKKRISAHEALCHPWIVDEQAAPDKPLDPAVLSRLKQASQMNKIKKMALRVIAERLSEEEIGGLKELFKMIDTDNSGTITFEELKAGLKRVGSELMESEIKSLMDAADIDNSGTIDYGEFLAATLHMNKMEREENLVAAFSYFDKDGSGYITIDELQSACTEFGLCDTPLDDMIKEIDLDNDGKIDFSEFTAMMRKGDGVGRSRTMMKNLNFNIADAFGVDGEKSDD [D171A;F306A]	increasing interaction

Variants of: B1
Settings: with di191_arath DI19-1, Q39083
Remark: another data set of the same source

Variant	effect of a mutation on the interaction
METKPNPRRPSNTVLPYQTPRLRDHYLLGKKLGQGQFGTTYLCTEKSTSANYACKSIPKRKLVCREDYEDVWREIQIMHHLSEHPNVVRIKGTYEDSVFVHIVMEVCEGGELFDRIVSKGHFSEREAVKLIKTILGVVEACHSLGVMHRDLKPENFLFDSPKDDAKLKATDFGLSVFYKPGQYLYDVVGSPYYVAPEVLKKCYGPEIDVWSAGVILYILLSGVPPFWAETESGIFRQILQGKLDFKSDPWPTISEAAKDLIYKMLERSPKKRISAHEALCHPWIVDEQAAPDKPLDPAVLSRLKQASQMNKIKKMALRVIAERLSEEEIGGLKELFKMIDTDNSGTITFEELKAGLKRVGSELMESEIKSLMDAADIDNSGTIDYGEFLAATLHMNKMEREENLVAAFSYFDKDGSGYITIDELQSACTEFGLCDTPLDDMIKEIDLDNDGKIDFSEFTAMMRKGDGVGRSRTMMKNLNFNIADAFGVDGEKSDD [F306A]	increasing interaction

Variants of: B1
Settings: with di191_arath DI19-1, Q39083
Remark: another data set of the same source

Variant	effect of a mutation on the interaction
METKPNPRRPSNTVLPYQTPRLRDHYLLGKKLGQGQFGTTYLCTEKSTSANYACKSIPKRKLVCREDYEDVWREIQIMHHLSEHPNVVRIKGTYEDSVFVHIVMEVCEGGELFDRIVSKGHFSEREAVKLIKTILGVVEACHSLGVMHRALKPENFLFDSPKDDAKLKATDFGLSVFYKPGQYLYDVVGSPYYVAPEVLKKCYGPEIDVWSAGVILYILLSGVPPFWAETESGIFRQILQGKLDFKSDPWPTISEAAKDLIYKMLERSPKKRISAHEALCHPWIVDEQAAPDKPLDPAVLSRLKQFSQMNKIKKMALRVIAERLSEEEIGGLKELFKMIDTDNSGTITFEELKAGLKRVGSELMESEIKSLMDAADIDNSGTIDYGEFLAATLHMNKMEREENLVAAFSYFDKDGSGYITIDELQSACTEFGLCDTPLDDMIKEIDLDNDGKIDFSEFTAMMRKGDGVGRSRTMMKNLNFNIADAFGVDGEKSDD [D150A]	increasing interaction

Variants of: B1
Settings: with di191_arath DI19-1, Q39083
Remark: another data set of the same source

Variant	effect of a mutation on the interaction
METKPNPRRPSNTVLPYQTPRLRDHYLLGKKLGQGQFGTTYLCTEKSTSANYACKSIPKRKLVCREDYEDVWREIQIMHHLSEHPNVVRIKGTYEDSVFVHIVMEVCEGGELFDRIVSKGHFSEREAVKLIKTILGVVEACHSLGVMHRALKPENFLFDSPKDDAKLKATDFGLSVFYKPGQYLYDVVGSPYYVAPEVLKKCYGPEIDVWSAGVILYILLSGVPPFWAETESGIFRQILQGKLDFKSDPWPTISEAAKDLIYKMLERSPKKRISAHEALCHPWIVDEQAAPDKPLDPAVLSRLKQFSQMNKIKKMALRVIAERLSEEEIGGLKELFKMIDTDNSGTITFEELKAGLKRVGSELMESEIKSLMDAADIDNSGTIDYGEFLAATLHMNKMEREENLVAAFSYFDKDGSGYITIDELQSACTEFGLCDTPLDDMIKEIDLDNDGKIDFSEFTAMMRKGDGVGRSRTMMKNLNFNIADAFGVDGEKSDD [D150A]	disrupting interaction

Variants of: B2
Settings: with cdpkb_arath CPK11, Q39016

Variant	effect of a mutation on the interaction
MDADSKRFLATLRSRSEMLMGFEEIDGDDDFQEEFACPFCAESYDIIGLCCHIDDEHTLESKNAVCPVCSLKVGVDIVAHITLHHGSLFKLQRKRKSRKSGTNSALSLLRKELREGDLQRLLGFTSRNGSVASSVTPDPLLSSFISPTRSQSSPAPRQTKNVSEDKQIERKRQVFISPVSLKDREERRHKSEFVQRLLSSAIFDEV [T105A]	decreasing interaction
MDADSKRFLATLRSRSEMLMGFEEIDGDDDFQEEFACPFCAESYDIIGLCCHIDDEHTLESKNAVCPVCSLKVGVDIVAHITLHHGSLFKLQRKRKSRKSGTNSTLALLRKELREGDLQRLLGFTSRNGSVASSVTPDPLLSSFISPTRSQSSPAPRQTKNVSEDKQIERKRQVFISPVSLKDREERRHKSEFVQRLLSSAIFDEV [S107A]	decreasing interaction
